These results are taken from paper PMC11320721.

In experiment [1] the target is PZP domain of JADE1 (JADE1PZP), wild type (human) (UniProt Q6IE81). Description: other fluorescence titration.
In experiment [2] the target is Nucleosome core particle with 207 bp DNA (NCP207) (human) (UniProt P04908). Kind of experiment: fluorescence polarisation. Background: Fluorescence polarisation rises when a labelled molecule tumbles more slowly, as on binding a larger partner.
In experiment [3] the target is Nucleosome core particle with 147 bp 601 DNA (NCP147) (human) (UniProt P04908). Description: fluorescence polarisation.

PZP domain of JADE1 (JADE1PZP), wild type (human), sequence (Q6IE81 201-373): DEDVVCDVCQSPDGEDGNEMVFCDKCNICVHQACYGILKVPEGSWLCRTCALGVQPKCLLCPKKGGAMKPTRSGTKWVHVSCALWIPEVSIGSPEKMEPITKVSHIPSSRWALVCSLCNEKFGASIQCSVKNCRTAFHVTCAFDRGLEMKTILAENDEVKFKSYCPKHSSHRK
PZP domain of JADE1 (JADE1PZP), wild type, sequence (Q6IE81 201-373): as above

For “H3_(1–31) peptide (residues 1–31 of H3) (from UniProt P68431 2-32)”, in experiment [1], the Kd of the first site (two-site binding model) worked out at 0.3 µM and the Kd of the second site (two-site binding model) stood at 25 µM.
The Kd is the concentration at which binding is half-saturated. Higher therefore signals weaker binding. Substance “H3_(15–34) peptide (residues 15–34 of H3) (from UniProt P68431 16-35)” came in with a Kd in experiment [1] of 63 µM.
On to “K331A/R334A/K367A (KRK) mutant of JADE1PZP (from UniProt Q6IE81 201-373) (domain or fragment)”, for which the fold decrease in binding against wild type JADE1PZP in experiment [2] was determined as 55 fold.
With “PZP domain of JADE1 (JADE1PZP), wild type (from UniProt Q6IE81 201-373) (domain or fragment)”, the S1/2 in experiment [2] amounted to 0.5 µM; in experiment [3] it was 2.8 µM.
